Measurements: IntAct's records for PubMed 18049475
Values belong to the substance of their own block, whether it stands above or below them.

Columns and labels:
gck3_caeel gck-3 [1] = molecular target: gck3_caeel gck-3 (UniProt G5EEN4)
gck3_caeel gck-3 [2] = molecular target: gck3_caeel gck-3 (UniProt G5EEN4); remark: listed apart in the source
gck3_caeel gck-3 [3] = molecular target: gck3_caeel gck-3 (UniProt G5EEN4); remark: listed apart in the source

Sequence of gck3_caeel gck-3 (G5EEN4 whole entry): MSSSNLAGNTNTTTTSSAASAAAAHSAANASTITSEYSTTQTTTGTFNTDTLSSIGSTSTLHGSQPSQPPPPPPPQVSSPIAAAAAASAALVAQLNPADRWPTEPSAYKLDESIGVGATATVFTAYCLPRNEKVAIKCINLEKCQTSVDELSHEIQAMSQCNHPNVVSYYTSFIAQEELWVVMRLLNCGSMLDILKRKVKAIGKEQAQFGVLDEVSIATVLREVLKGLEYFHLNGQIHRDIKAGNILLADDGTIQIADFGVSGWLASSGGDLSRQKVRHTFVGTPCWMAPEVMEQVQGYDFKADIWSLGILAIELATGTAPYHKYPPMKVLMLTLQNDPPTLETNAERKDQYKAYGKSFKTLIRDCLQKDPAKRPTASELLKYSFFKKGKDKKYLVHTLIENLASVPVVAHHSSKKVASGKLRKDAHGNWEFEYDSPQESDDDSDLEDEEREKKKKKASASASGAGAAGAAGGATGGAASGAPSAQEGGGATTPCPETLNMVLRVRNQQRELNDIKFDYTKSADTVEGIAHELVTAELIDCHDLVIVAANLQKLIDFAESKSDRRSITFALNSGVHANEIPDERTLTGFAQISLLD

effect of a mutation on the interaction (gck3_caeel gck-3 [1]): decreasing interaction
Substance: Serine/threonine-protein kinase WNK (Caenorhabditis elegans), X5M5N0 F1133A

effect of a mutation on the interaction (gck3_caeel gck-3 [2]): disrupting interaction
Substance: Serine/threonine-protein kinase WNK (Caenorhabditis elegans), X5M5N0 F1133A;F1222A

effect of a mutation on the interaction (gck3_caeel gck-3 [3]): decreasing interaction
Substance: Serine/threonine-protein kinase WNK (Caenorhabditis elegans), X5M5N0 F1222A
